The source of these data is patent publication US20210231678A1, “ALLERGY ANTIGEN AND EPITOPE THEREOF” (FUJITA ACADEMY, priority 2020, published 2021).

The subject of this assay is IgE antibody in the serum of a latex-allergic patient. The assay can be described thus: Immunoblotting of two-dimensional electrophoresis gels of latex proteins with patient serum. The assay is classed as binding, human. Conditions: immunoblot of 2D electrophoresis gel of latex proteins, compared with serum of non-latex-allergic subject. The protocol:
Identification of antigens by immunoblotting was carried out by taking all the steps up to the step of “Second-dimensional SDS-PAGE” as described above in Example 1, followed by the steps of “Transfer to membrane”, “Immunoblotting” and “Analysis” as described below.
Transfer system: XCell SureLock Mini-Cell and XCell II Blot Module (produced by Life Technologies) Transfer buffer: NuPAGE Transfer Buffer (X20) (produced by Life Technologies), used in a form diluted 200-fold with milliQ water.
Immunoblotting of the membrane was carried out using, as a primary antibody, a serum sample from a patient with a latex allergy or a serum sample from a non-latex-allergic subject.
(1) The transferred membrane was shaken in a 5% skim milk/PBST solution (a PBS buffer containing 0.1% Tween 20 nonionic surfactant) at room temperature for one hour. […]
The immunoblots obtained with the serum from the latex-allergic patient were compared with those obtained with the control serum from the non-latex-allergic subject. For protein present in latex, in immunoblotting using the serum from the latex-allergic patient, 2 spots were detected, which are different from the spots detected when the serum of the non-latex-allergic subject was used and different from those of the known latex allergen proteins. […]
A general note: Immunoblotting shows a protein as a band on a membrane.

B1: Citrate-binding protein (protein, listed as Hevea brasiliensis)
chain: MKMKRSPYCFCCSFALLLLVSFLKDRHFCSADPTDGFTEVPLTEDNFVIQKPYDKPLNDRYSYKNGIRRLWVYENDKPFKVGSPTRPRTEIRIKGHDYSSGVWQFEGQVHVPEGTSGVTVMQVFGAVNKATALQLRVYNGDLKSYKSNSVATDIYNKWLRVNVIHKVGKGEITVFINGQQKLVVNDDGPAEHYFKCGVYAAPDGSSNYMESRWKNIKLYKSDNKLEGCNNNHGTWLVQ
As for B1, the “specific binding to IgE antibodies from allergic patients” value is “specifically bind to IgE antibodies from allergic patients”.

B2: Hevamine-A (protein, listed as Hevea brasiliensis)
chain: MAKRTQAILLLLLAISLIMSSSHVDGGGIAIYWGQNGNEGTLTQTCSTRKYSYVNIAFLNKFGNGQTPQINLAGHCNPAAGGCTIVSNGIRSCQIQGIKVMLSLGGGIGSYTLASQADAKNVADYLWNNFLGGKSSSRPLGDAVLDGIDFDIEHGSTLYWDDLARYLSAYSKQGKKVYLTAAPQCPFPDRYLGTALNTGLFDYVWVQFYNNPPCQYSSGNINNIINSWNRWTTSINAGKIFLGLPAAPEAAGSGYVPPDVLISRILPEIKKSPKYGGVMLWSKFYDDKNGYSSSILDSVLFLHSEECMTVL
Consider B2, for which the “specific binding to IgE antibodies from allergic patients” value is reported as “specifically bind to IgE antibodies from allergic patients”.
